Legend:
lamp2_rat Lamp2 = lamp2_rat Lamp2 (UniProt P17046)
lamp2_human LAMP2 [1] = target: lamp2_human LAMP2 (UniProt P13473)
lamp2_human LAMP2 [2] = target: lamp2_human LAMP2 (UniProt P13473); remark: listed apart in the source

Sequence of lamp2_human LAMP2 (P13473 whole entry): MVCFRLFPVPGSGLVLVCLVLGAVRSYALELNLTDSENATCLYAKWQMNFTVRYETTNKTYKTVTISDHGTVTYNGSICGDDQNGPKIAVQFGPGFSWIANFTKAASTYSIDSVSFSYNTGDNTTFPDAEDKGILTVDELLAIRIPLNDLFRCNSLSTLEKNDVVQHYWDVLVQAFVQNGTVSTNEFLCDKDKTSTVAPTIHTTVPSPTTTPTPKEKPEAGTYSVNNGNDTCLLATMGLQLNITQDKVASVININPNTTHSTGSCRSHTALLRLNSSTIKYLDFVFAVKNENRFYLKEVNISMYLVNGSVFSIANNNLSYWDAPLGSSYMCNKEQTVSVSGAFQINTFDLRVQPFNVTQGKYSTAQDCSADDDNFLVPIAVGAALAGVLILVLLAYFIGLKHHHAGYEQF
Sequence of lamp2_rat Lamp2 (P17046 whole entry): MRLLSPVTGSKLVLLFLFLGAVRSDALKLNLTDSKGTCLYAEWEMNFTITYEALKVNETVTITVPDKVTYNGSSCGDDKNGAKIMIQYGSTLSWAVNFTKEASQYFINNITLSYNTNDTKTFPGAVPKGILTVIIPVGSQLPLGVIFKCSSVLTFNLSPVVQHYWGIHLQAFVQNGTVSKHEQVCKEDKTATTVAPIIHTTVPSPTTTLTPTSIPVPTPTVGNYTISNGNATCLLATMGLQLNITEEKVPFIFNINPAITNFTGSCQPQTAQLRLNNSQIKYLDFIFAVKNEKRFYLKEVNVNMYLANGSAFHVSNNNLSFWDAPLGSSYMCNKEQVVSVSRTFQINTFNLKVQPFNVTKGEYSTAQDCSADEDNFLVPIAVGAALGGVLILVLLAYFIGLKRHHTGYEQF

Substance	effect of a mutation on the interaction (lamp2_rat Lamp2)	effect of a mutation on the interaction (lamp2_human LAMP2 [1])	effect of a mutation on the interaction (lamp2_human LAMP2 [2])
Leucine-rich repeat serine/threonine-protein kinase 2 (Homo sapiens), Q5S007 R1441C	increasing interaction	increasing interaction	
Leucine-rich repeat serine/threonine-protein kinase 2 (Homo sapiens), Q5S007 G2019S	increasing interaction		increasing interaction
